Data set [1] concerns ctMex67 deltaN (with Mtr2);ctMtr2 (Chaetomium thermophilum;Chaetomium thermophilum). Description: fluorescence anisotropy. Particulars: 20 mM Tris-HCl pH 8.0, 50 mM NaCl, 10 nM DY-547-labelled RNA, serially diluted protein, temperature not stated.
Data set [2] relates to ctMex67 RRM-LRR (NTF2L-Mtr2 deletion) (Chaetomium thermophilum). The data set is described as follows: fluorescence anisotropy. Particulars: 20 mM Tris-HCl pH 8.0, 50 mM NaCl, 10 nM DY-547-labelled RNA, serially diluted protein; temperature not stated.
Data set [3] deals with ctMex67 LRR-NTF2L (RRM deletion);ctMtr2 (Chaetomium thermophilum;Chaetomium thermophilum). Description: fluorescence anisotropy. Particulars: 20 mM Tris-HCl pH 8.0, 50 mM NaCl, 10 nM DY-547-labelled RNA, serially diluted protein; temperature not stated.
Data set [4] concerns ctMex67 deltaUBA (deltaN deltaUBA);ctMtr2 (Chaetomium thermophilum;Chaetomium thermophilum). The data set is described as follows: fluorescence anisotropy. The settings on record: 20 mM Tris-HCl pH 8.0, 50 mM NaCl, 10 nM DY-547-labelled RNA, serially diluted protein; temperature not stated.
For data set [5], the target named is Chaetomium thermophilum Mex67 LRR-NTF2L (ctMex67^LRR-NTF2L; residues 180-556) (Chaetomium thermophilum). The data set is described as follows: SEC-MALS; ctMex67^LRR-NTF2L alone; single peak; dimer.

pKd: −log10 of the molar value.

The substance CCCCCCCCCCCCCCC [polyC15] gave a pKd in data set [1] of 5.22. In data set [1], GGGGGGGGGGGGGGG [polyG15] had a negative-log Kd (pKd) of 6.51. As for AAAAAAAAAAAAAAA [polyA15], the pKd in data set [1] is 6.46; in data set [2] it was 5.26; in data set [3], 5.17; in data set [4], 6.43. In the case of UUUUUUUUUUUUUUU [polyU15], in data set [1] (printed '930 and 6.0 µM, respectively', 930 read as nM), the dissociation constant (Kd) came out at 930 nM. Turning to “Chaetomium thermophilum Mex67 LRR-NTF2L (ctMex67^LRR-NTF2L; residues 180-556) (domain or fragment)”, the stoichiometry N in data set [5] came to 2.

These data come from paper PMC4498709.
